For this series, the target named is DENV capsid protein (DENVC) (Dengue virus 2 strain 16681, UniProt O09234 1-100). Briefly: nephelometry (condensate formation); NaCl < 150 mM; diminished above; nonlabeled 25 mer. As to conditions: protein: recombinant; chain copies: 2.

Regarding GGACAGGAAUUAAUAGUAGCUGUCC (ssDNA, printed with U although named ssDNA; chemistry ambiguous) [ssDNASel25 (Sel25 DNA, 25 mer)], the binding result was “binds”.

These data come from PMC8397897.
